This is an account of results in the DeepSol protein solubility set.

A short description of this series: soluble on expression in E. coli; label from the status in PepcDB or PDB records.
With “MVDLKRLRQEPEVFHRAIREKGVALDLEALLALDQEVQELKKRLQEVQTERNQVAKRVPKAPPEEKEALIARGRALGEEAKRLEEALREKEAQLEALLLQVPLPPWPGAPVGGEEANREIKRVGSPPEFSFPPLDHVALMEKNGWWEPRISQVSGSRSYALKGDLALYELALLRFAMDFMARRGFLPMTLPSYAREKAFLGTGHFPAYRDQVWAIAETDLYLTGTAEVVLNALHSGEILPYEALPLRYAGYAPAFRSEAGSFGKDVRGLMRVHQFHKVEQYVLTEASLEASDRAFQELLENAEEILRLLELPYRLVEVATGDMGPGKWRQVDVEVYLPSEGRYRETHSCSALLDWQARRANLRYRDPEGRVRYAYTLNNTALATPRILAMLLENHQLQDGRVRVPKALVPYMGKEVLEPCG”, the “soluble on expression in E. coli” value is reported as “soluble”. For “MGHHHHHHSHMSASYISDPVIAGTNMTWSQEKQSLLMQGEILVETRSHTAWGGAVSACMYLPLRRSQVWQQITDYPRWVQYFPDITKSEVLQRGEVKRLYQAAQKAFFFFTAQVEIYLNVVEVIGHKIQFRMEKGTFVDFTANLELKDCGDGTLLIYGVQATPNIPVPSIFIQQAMNFELPTNMRKMRQVISNSVNS”, the “soluble on expression in E. coli” value is given as “not soluble”. For “MGSDKIHHHHHHMHYDHVLDKRMLRRSFEQAAAGYDQSAVLQREICDRMLSRLEYIKYVPARILDAGSGTGYGTRKLIERYPAAEIMPMDIALTMHRCARMAISEQIPGWQRWLPFRRHWPRDYICADIEQLPLGEASIGMIWSNLAIQWCNDLRQTFAEAYRVLENGGLLMFSTFGPDTLKELRQAFKSADSFSHVNRFTDMHDIGDMLVNCGFSLPVMDMEYITLTYEDVRGVMQDLKAIGARNVTQGRRRGLTGKAAWQQVIERYEALRQDGRLPATYEVVYGHAWKPESRQVQLKPETRRKLGLEP”, the “soluble on expression in E. coli” value is reported as “not soluble”.

Take “MGSDKIHHHHHHMEGEYRALNDISLESNVLFFGKESCLPNYFYPGNNVRKNYVIHYILKGKGTFSSANHPSIELKAGDIFILPKGIPCFYKADGKEPWTYLWIGFSGLKIKNILSRSLLLSQRYLHQVQNSHFTDSLLKLFDALHNPDTSTNNDLLIESLIYQTFYYLNSEYPAQNKTNIKSSIRLKTATKYLYDNFTDNNCSIYLLCNKLGVSRSYLYNIFKEGMNLSPQQFLIKLRMEEAKNKLKNSQNSIQEISTSVGYTDTFTFSKAFKKYSGFSPKNYRQIKSSEN”: the “soluble on expression in E. coli” value is recorded as “not soluble”. The value for “MRVLITGATGGLGGAFARALKGHDLLLSGRRAGALAELAREVGARALPADLADELEAKALLEEAGPLDLLVHAVGKAGRASVREAGRDLVEEMLAAHLLTAAFVLKHARFQKGARAVFFGAYPRYVQVPGFAAYAAAKGALEAYLEAARKELLREGVHLVLVRLPAVATGLWAPLGGPPKGALSPEEAARKVLEGLFREPVPALLEV” was “soluble”. With “DHAAPLIFLIAGTGAPYNSTINEFLKKLYYGAGYHVVQLSSPTSYDFMSSASRFATPGVSTEDAEDLYRVMQAIRAQQAQLPVTDYYLTGYSLGALNAAFVSKLDETRRSFNFKKVLLLNPPVNLYTSISNLDKLVQTNVKGINNTTTFYELVLAKLTRYFRQKGYIDLNDALLFDFQQSKQHLTNEQMAMLIGTSFRFSSADIAFTSDLINRRGLIIPPKFPISEGTSLTPFLKRALQCDFDCYLTEQVIPMWRARTDGGSLLQLVDQVSLYALKDYLHSNTKIAVMHNADDVILGAGDLGFLRKTFGDRLTVYPYGGHCGNLNYRVNTDAMLEFFRG”, the “soluble on expression in E. coli” value is given as “not soluble”.

With “MDVQIFPHRLLGADTTEKLLNRLEDISGVKRMVIHGQRLPPEDHPDRRIISVKGHEFELQVKTGRVLLEIEDEDTIADIKRVCEDLLPFGYDVTPGKYIRTQKTVTDEIKYGEDLDKVPEELIGLTDQNARLSERATIIKRKKEHLEHHHHHH”, the “soluble on expression in E. coli” value is given as “soluble”. In the case of “MSLLFNTEDLKAIFQEVSLNPSDRLVCNNSNTIYLWQDNILRVQSDHETQYRSYNVELPFVPEQMVISPSGGLVAFHANSELYVMEVNEQSRLRKHFNTSLGIKKLLWHPLATYGLSFVILHDDSTIRIYDLEDLEPESITVFNRKSRSFGLSDHVESVCDIAFDPTGLTLYLLSSFNYCDIYAIHPCLPKNFSLRSNDTSNVTSRTKNGSLADYMLHKSLSLYNSLDKQLKLISGSDPDVESDYLTLKHDLLKQIQFFDNYKKNDGIDTFTSKAIRNSVPQGPFIIKKFPTALNAKEVTGLTIIPVGERLGLLNLQFIDGTNVVLFSDSEIVMSWSLRSNTTFNNLSVITMFNAKGQCQLLNSSEPKLVFTGDSSTTIMEMPWLEPLAQCIRLHDFSIIDDVKFENKIRTVSGTFLGVLSTLSGDILYNGNSFKVIESNDKSTTQKPINRTDEVKYTYKPSLPTSGKELDMLLTKYKTEANGFISGIPDSLAPLPLKNEGHHHHHH”, the “soluble on expression in E. coli” value is “soluble”. With “MIMLKEYSLKALQTAINQAMKLDEQMPQKLQKLDGKTLEMVITPLNVNFYIRFKGSEMQLLHRIDGRPDTIIHSNPIGLIRLSLLPTSKARSLFNDKIRISGDIELGQSVKKLFDEIDIDWEGHLAHFTGDVVAHQIGSFVRKGLEFKNQFSTSMQQNITEFLQEELRICPSRNELEDFFAEVDELVLSVDRLQAHINNLMSDDEGN” the entry was “not soluble”; with “FGLKNNPSSSRPEGLLFYEYQQAKPKQQTAHFALDQMIYEINQSFGYEIIQRAKKLAAS”, “not soluble”; with “LREQPQQNECQLERLDALEPDNRIESEGGLIETWNPNNKQFRCAGVALSRATLQRNALRRPYYSNAPQEIFIQQGNGYFGMVFPGCPETFEEPQESEQGEGRRYRDRHQKVNRFREGDIIAVPTGIVFWMYNDQDTPVIAVSLTDIRSSNNQLDQMPRRFYLAGNHEQEFLQYQHQQGGKQEQENEGNNIFSGFKRDFLEDAFNVNRHIVDRLQGRNEDEEKGAIVKVKGGLSIISPPEKQARHQRGSRQEEDEDEEKQPRHQRGSRQEEEEDEDEERQPRHQRRRGEEEEEDKKERGGSQKGKSRRQGDNGLEETVCTAKLRLNIGPSSSPDIYNPEAGRIKTVTSLDLPVLRWLKLSAEHGSLHKNAMFVPHYNLNANSIIYALKGRARLQVVNCNGNTVFDGELEAGRALTVPQNYAVAAKSLSDRFSYVAFKTNDRAGIARLAGTSSVINNLPLDVVAATFNLQRNEARQLKSNNPFKFLVPARESENRASA”, “soluble”. With “MSLTTIKNIESFVYRYPLSKPVITSFGVMNNRPMLILKITDNNGMYGWGEVWCNFPLTGAEHRAKLIDNIFKPLLANFDIITPEKTYEYLVSKTKILSIQSGEPGPIAQCIAGIDIAVHDLIGKVENISLWKKFGGNKNIIPCYASGINPTKPEVTVKDAIKKGYSSFKLKIGFGIKKDLGNIKEIKNILPEKSSLMVDANQAWNLNEAIEACRLLEDLNLCWLEEPIPANSEIKEWIHLKDSTKITLAAGENFNSHREFSSFFQNKVFGYLQPDIAKWGGFTECSKLIKNIIQNKITYCPHYLGGGIGLVASAHLLSASNGKGILEVDINDNPLRSDIVGDIFEKNSGFATLSDIPGLGFEPNLKTISKYLVAHEGHHHHHH” the entry was “soluble”; with “PDVSVQEMVSAYTTFVNKGIRVNPLPITRIEDQYGNVVAQFSPNMVEVLPPDAAYKMLYMLKSVVDGGTGSRLRYRYGFKLDMGGKTGTTQNNSD”, “not soluble”; with “MTLALLGSSLPAASLQAGETGISVSASSTVTYNPDTAEFTTTVESTDKDAAKAAAKVATLWSSLQQALRKVGISSADASSTSYTVSPEWEWNSANGKREFKGYKARHVVRVVVRDLGKLGGAIDAVVGAGSGTVDGLSYSSSRFESLRTQALENAVKSAKHDAEVMARAAGGRLGQPLELQYGQPQSDYPVMRFAMAEGFKAAPAPTDVEPGEQKLTVSVSSRWQFVSGSGKLEHHHHHH”, “not soluble”. With “MGSDKIHHHHHHMVSLFKIIQVGDHGEVPGAEVFWMKDFDKWYRLSFYSFLIKTENDQYVLINTGLPDDLSLRNKFLKEWAKSDRCKFQHVEKIENALAKLNITTDDISHIIITPVQDYTIGRIHMFRKAKLYFSKKGWYEDVVTPSPSPFLNRDIYLPRLTREYLFDEAWNRIVLVENQEVIKGIEVKWTGCHHRSSMLVKFNFDKKRWCISDSAFVMNNFEQNIPIGIAEDIYECLNAYDYMRRECDVVIPSYDPENVNRFKEYILK” the entry was “not soluble”; with “MSIMKQRLPLGEFSSSKINKLAIANIADASEPRNHGENNVGTVCLPSIKSLMVSPEVYENTKSLPVPLMRSSGGGMACASKSSCQDGISTKTTSRDYSELSKKLQIRLQFAYYKYKTKQTDKNFTDLKSKHSITRPSKVATHSKSEPLTRRRKLVLSQGHYKTPARSKIKTPSSICSHDNTSSFTSFRGVSESSSTTADMNVADTTTPIRNNINTKHSNSHNRTLYQRQETPTSIKAAKSLIHLFTSNQ”, “not soluble”; with “MPTLKYLPHYPPALVQQAQALFDSGELGALLRSKYPDGHDVQTDKALYQFVSALKQRHLKNAPLPAKVLYDNQQHPLKGTLGTNTTISRVQGGRLKSKSEIRIASLFRELPLPFLQMIVVHELAHLKVRDHDKAFYQLCCHMQPDYHQLEFDLRLWLNWREQRRNLEHHHHHH”, “soluble”. Take “MGSDKIHHHHHHMIVRHKLLADLVRLWKNDQLVEKIDRLPIELSPRKSKPLGRCCVHKERAVWRYKTFPLMGLDMTDEHDEVTPLSEYARMALNRPEPSKENIMCVIDEACSSCVQINYEITNLCRGCVARSCYMNCPKDAIRFKKNGQAMIDHDTCVSCGICHKSCPYHAIVYIPVPCEESCPVKAISKDEHGVEHIDESKCIYCGKCMNACPFGAIFEISQTFDVLQHIKKGEKLVAIIAPSILGQFKTSIEQVYGAFKEIGFTDIIEVAEGAMMTTSNEAHELLEKLEEGQKFMTTSCCPSYIELVEKHMTEMKPYVSTTGSPMYYAARIAKEKHPDAKIVFVGPCVAKRKEVRRDDAVDYILTFEEVGSILDGMDIQLEQVNSFSILHTSVREAHGFAQAGGVMGAVKAYLKEEADKINAIQVSDINKKNIALLRACAKTGKAAGQFIEVMACEGGCITGPSTHNDIVSGRRQLAQELLKRKESYETMDR”: the “soluble on expression in E. coli” value was “not soluble”. Regarding “MSLNVQGNLFRPLTLPNGLSLENRFVLSPMVTNSSTSEGFVTDDDIAYAVRRAKSAPLQITGAAYITEYGQLFEYGFSVSKDEDIPGLTKLAKAMKSKGAKAVLQLTHAGRFSSHTLARHGYVYGPSPMQLQSPYPHQVKELTHKDILRIIDEYVQATRRAIQAGFDGVEISSAQRLLIQTFFSTFSNQRKDEYGPQTLTNRCRLGLEVFKAVQKVIREEAESDFILGFRATPEETRGSQIGYSIEEFMEFLEKILAIAQVDYLAIASWGHDVFRNTIRSEGVYKGQLVNQVIFEHFGDRVPIMATGGINSASKVFEALQHAHMIGASTPLVVDPEFLQKIKAKCSDQINLRIKVSDLEGLAIPKEGHHHHHH”, the “soluble on expression in E. coli” value is listed as “not soluble”. Take “MKYSEIFKKRLGCKNTDEVFNYLLSHMKETIKGWDFFVAWEKVMNKVGSVEVVLNILNYLVGKENVVEEFKMLLGRYPEIAEVLPALLALREKSIKVVEPLADNVFNYKEYVFRKKKKYNPEEIEMLAEFAEKTGLLAMFEKKNIKSVVDYAIGVEVGLDTNARKNRSGTAMEMITELFVKKICSMNNYRYLSQATSHKIKTSFGYNVSVDKSERSFDFAIDNGHKLYLVETNYYGGGGSKLKSVAGEFTTLFSFIKKETPEHGFIWITDGKGWETAKKPLRESFDKVDYVLNLDMVQKGILEDIILQGL”: the “soluble on expression in E. coli” value is given as “soluble”.
